# Results reported in patent EP2009022A1.
# What was measured:
# Fc-CD95 (human) = Fc-CD95 (human) (UniProt P25445); test: SPR (BIAcore 2000), biotinylated Fc-CD95 on streptavidin chip, ligand in solution, 1:1 model
# human CD95 (human) [1] = target: human CD95 (human) (UniProt P25445); test: cell-based or functional assay
# TRAILR1 (human) = TRAILR1 (human) (UniProt O00220); test: cell-based or functional assay
# murine CD95 (murine) = murine CD95 (murine) (UniProt P25446); test: FACS on MBL2-CD95 cells, anti-Flag mAb M2 and PE anti-mouse IgG
# human CD95 (human) [2] = target: human CD95 (human) (UniProt P25445); test: FACS on KB cells, anti-Flag mAb M2 and PE anti-mouse IgG
# UniProt P25446, sequence (P25446 22-327): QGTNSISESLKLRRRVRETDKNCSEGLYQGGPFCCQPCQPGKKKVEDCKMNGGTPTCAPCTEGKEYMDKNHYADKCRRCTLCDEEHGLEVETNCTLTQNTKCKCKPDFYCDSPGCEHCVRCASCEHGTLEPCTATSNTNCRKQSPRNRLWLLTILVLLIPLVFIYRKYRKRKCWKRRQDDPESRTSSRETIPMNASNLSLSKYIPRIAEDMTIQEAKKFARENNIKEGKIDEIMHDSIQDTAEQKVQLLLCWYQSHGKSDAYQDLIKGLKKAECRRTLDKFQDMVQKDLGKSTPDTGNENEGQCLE
# UniProt O00220, sequence (O00220 24-468): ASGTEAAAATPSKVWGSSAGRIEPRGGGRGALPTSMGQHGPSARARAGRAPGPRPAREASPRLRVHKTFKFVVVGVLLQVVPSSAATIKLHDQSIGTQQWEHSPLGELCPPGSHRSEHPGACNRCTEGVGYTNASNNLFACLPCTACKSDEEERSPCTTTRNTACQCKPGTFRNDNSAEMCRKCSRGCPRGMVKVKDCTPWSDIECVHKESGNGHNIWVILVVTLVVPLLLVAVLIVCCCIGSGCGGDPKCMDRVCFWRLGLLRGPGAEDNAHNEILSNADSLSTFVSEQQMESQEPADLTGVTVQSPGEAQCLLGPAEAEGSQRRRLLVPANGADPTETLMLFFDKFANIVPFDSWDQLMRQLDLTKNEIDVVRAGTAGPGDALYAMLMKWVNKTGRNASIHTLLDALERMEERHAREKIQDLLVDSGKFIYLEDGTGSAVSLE
substance,measurement,setting,value
Flag-TNC-mCD95L(137-279) (from UniProt P10039 110-139) (ligand),Kd,Fc-CD95 (human),26 nM
mCD95L(137-279) (ligand),protection of KB cells from Fc-hCD95L-induced cell death (competition assay),human CD95 (human) [1],> 1 µg/mL
Flag-hTRAIL(95-281) (ligand),"cell death of CHX-sensitized KB cells, no crosslinking (crystal violet)",TRAILR1 (human),10 ng/mL
Flag-hCD95L(137-281) (ligand),lowest concentration with significant binding,murine CD95 (murine),0.1 µg/mL
same,lowest concentration with significant binding,human CD95 (human) [2],0.3 µg/mL
same,protection of KB cells from Fc-hCD95L-induced cell death (competition assay),human CD95 (human) [1],0.05 µg/mL
same,Kd,Fc-CD95 (human),39 nM
